Experimental data as given in patent publication US20250197490A1 (HBM ALPHA THERAPEUTICS, published 2025).
Where a chain is given by its changes, count along the chain named. Where two headings read alike, the source gives them in different places.

Tests used:
biotinylated CRH [1] = molecular target: T1, biotinylated CRH (human and mouse, UniProt P01143 145-185 (rat entry), not fully specified; biotin; which end is not stated for the result (NT-biotin and CT-biotin forms were used)); test: ELISA, CRH (CT biotin)
T1 construct: also called biotin-CRH; CRH (NT biotin)
T1 peptide: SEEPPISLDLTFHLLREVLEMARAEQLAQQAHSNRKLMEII

biotinylated CRH [2] = molecular target: T1, biotinylated CRH; test: ELISA, CRH (NT biotin)
Protocol: (§1) Streptavidin (Thermo, Cat: 21125) was diluted in PBS to a concentration of 2 μg/ml. 100 μl of diluted streptavidin was added per well to ELISA microplates, and the plates were incubated overnight at 4° C. […] Subsequently, plates were washed and incubated with HRP-conjugated goat anti-human IgG (H+L) antibody (Jackson, Cat: 109-035-088) at 37° C. for 1 hour. 100 μL of 3,3′,5,5′-tetramethylbenzidine (TMB) substrate (Biopanda, Cat: TMB-S-003) was added, and the plates were incubated at room temperature for 15 minutes. 100 μL of ELISA stopping solution (Solarbio, Cat #: C1058) was added to terminate the reaction, and the optical density at 450 nm (OD450 nm) was determined by an ELISA plate reader (Molecular Devices, Spectra max 384 plus).
These potential PTMs were mutated individually either in HCDR2 alone, in LCDR1 alone, or in various combinations of mutations, as detailed in Table 3. […] Most ΔPTM variants retained functional activities.

[3] = molecular target: T2, corticotropin-releasing hormone (CRH) peptide (human and mouse, UniProt P01143 145-185 (rat entry), not fully specified); test: cell-based or functional assay
T2 peptide: T1 peptide

[4] = molecular target: T2, corticotropin-releasing hormone (CRH) …; test: cell-based or functional assay
biotinylated CRH [5] = molecular target: T1, biotinylated CRH; test: ELISA, CRH (NT biotin)
Protocol: as §1

biotinylated CRH [6] = molecular target: T1, biotinylated CRH; test: ELISA, CRH (CT biotin)
Protocol: as §1

[7] = molecular target: T3, N-Terminal CRH peptide (N-terminal region plus central region, CT biotin) (human and mouse, C-terminal K-Biotin); test: ELISA, N-Ter-CRH (CT-biotin) on streptavidin
T3 construct: also called N-Ter-CRH
T3 peptide: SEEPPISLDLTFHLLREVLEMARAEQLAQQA
Protocol: as §1

[8] = molecular target: T4, human UCN2 peptide, biotinylated (human, UniProt Q96RP3 72-109, limits assumed, biotin at N- or C-terminus); test: ELISA, hUCN2 (NT biotin) and (CT biotin)
T4 construct: also called hUCN2 (NT Biotin); hUCN2 (CT Biotin)
T4 peptide (looked up): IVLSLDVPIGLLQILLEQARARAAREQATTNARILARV
Protocol: (§2) Streptavidin (Thermo, Cat: 21125) was diluted in PBS with a concentration of 2 μg/mL. 100 μL of diluted streptavidin was added per well to ELISA microplates, and the plates were incubated overnight at 4° C. Plates were blocked with ELISA blocking solution (containing 2% w/v BSA, 0.05% (v/v) Tween-20, pH 7.4 PBS buffer) at 37° C. for 1 hour, and then incubated with either 1 μg/mL hUCN1 (NT Biotin), hUCN1 (CT Biotin), hUCN2 (NT Biotin), hUCN2 (CT Biotin), hUCN3 (NT Biotin), or hUCN3 (CT Biotin) for 1 hour at 37° C. […] Plates were subsequently washed and incubated with HRP-conjugated goat anti-human IgG (H+L) antibody (Jackson, Cat: 109-035-088) at 37° C. for 1 hour. 100 μl of TMB Substrate (Biopanda, Cat: TMB-S-003) was added, and the plates were incubated at room temperature for 15 minutes. 100 μL of ELISA stopping solution (Solarbio, Cat #: C1058) was then added to terminate the reaction, and the OD450 nm was determined by an ELISA plate reader (Molecular Devices, Spectra max 384 plus).

[9] = molecular target: T5, human UCN3 peptide, biotinylated (human, UniProt Q969E3 120-157, biotin at N- or C-terminus); test: ELISA, hUCN3 (NT biotin) and (CT biotin)
T5 construct: also called hUCN3 (NT Biotin); hUCN3 (CT Biotin)
T5 peptide (looked up): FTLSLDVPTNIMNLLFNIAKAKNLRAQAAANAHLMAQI
Protocol: as §2

[10] = molecular target: T6, CRH (Central Region, NT Biotin) (N-terminal Biotin-K; C-terminal NH2); test: ELISA, CRH central region peptide (NT biotin)
T6 construct: also called Central CRH
T6 peptide: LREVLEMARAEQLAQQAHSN
Protocol: as §1

[11] = molecular target: T7, CRH (Central Region, CT Biotin) (C-terminal K-Biotin); test: ELISA, CRH central region peptide (CT biotin)
T7 construct: also called Central CRH
T7 peptide: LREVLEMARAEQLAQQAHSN
Protocol: as §1

[12] = molecular target: T8, CRH (C-Terminal Region, NT Biotin) (N-terminal Biotin-K; C-terminal NH2); test: ELISA, CRH C-terminal region peptide (NT biotin)
T8 construct: central region plus C-terminal region of CRH; also called C-Terminal CRH; C-Ter-CRH
T8 peptide: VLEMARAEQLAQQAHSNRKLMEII
Protocol: as §1

[13] = molecular target: T9, human UCN1 peptide, biotinylated (human, UniProt P55089 83-122, biotin at N- or C-terminus); test: ELISA, hUCN1 (NT biotin) and (CT biotin), mAb at 100 and 10 nM
T9 construct: also called hUCN1 (NT Biotin); hUCN1 (CT Biotin)
T9 peptide (looked up): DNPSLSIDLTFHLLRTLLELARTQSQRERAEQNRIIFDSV
Protocol: as §2

biotinylated CRH [14] = molecular target: T1, biotinylated CRH; test: Octet in-tandem competition on captured CRH; row = 1st mAb; competitor (2nd mAb) PR302341-34
Protocol: (§3) SA sensors (Fortebio, Cat #18-5019) were hydrated in running buffer for 10 mins.

biotinylated CRH [15] = molecular target: T1, biotinylated CRH; test: ELISA, CRH (NT biotin)
biotinylated CRH [16] = molecular target: T1, biotinylated CRH; test: ELISA, CRH (NT biotin)
[17] = molecular target: T9, human UCN1 peptide, biotinylated; test: ELISA, hUCN1 (NT biotin)
Protocol: as §1

[18] = molecular target: T9, human UCN1 peptide, biotinylated; test: ELISA, hUCN1 (CT biotin)
Protocol: as §1

biotinylated CRH [19] = molecular target: T1, biotinylated CRH; test: Octet in-tandem competition on captured CRH; row = 1st mAb; competitor (2nd mAb) PR006669
Protocol: as §3

B1: PR301612 (antibody, human IgG1, kappa, V domains shown)
VH: EVKLEESGGGLVQPGGSIKLSCVASGFTFSGAWMAWVRQSPEKGLEWVAEIKNKANNHATFYAESVKGRFIISRDDSKSSVYLQMNSLRAEDTGTYYCTLPDVWGTGTTVTVSS
VL: QIVLTQSPAIMSASPGERVTISCSASSSVSNMYWYLQKPGSSPKPWIYRTSNLASGVPARFSGSGSGTSYSLTISSMEAEDVATYYCQQYHSFPRTFGGGTKLEIKR
**Q.** With B1 as the binder, how does the “EC50 (read off the curve)” value (biotinylated CRH [1]) read?
**A.** The value was ~0.03 nM.

B2: PR005656 (antibody, human IgG1, kappa, V domains shown)
VH: EVQLVESGGVLVQPGGSLRLSCAASGFTFSSYWMTWVRQAPGKGLEWVANIKQEGSEKYYVDSVKGRFTISRDNAKNSLFLQMNSLRAEDTAVYYCARTLIFDYWGQGTLVTVSS
VL: DIVMTQSPLSLPVTPGEPASISCRSSQSLLHSTGYNSLEWYLQKPGQSPQLLIYLGSNRASGVPDRFSGSGSGTDFTLKISRVEAEDVGIYYCMQTLQTPITFGQGTRLEIKR
**Q.** For B2, which “EC50 (read off the curve)” value (biotinylated CRH [2]) is on record?
**A.** Its value is ~0.03 nM.

**Q.** What about the “IC50 (read off the curve), CRH-induced mCRHR1 luciferase reporter” value [3] of the same binder?
**A.** The value was ~4 nM.

B3: PR005660 (antibody, human IgG1, kappa, V domains shown)
VH: B2 VH
VL: B2 VL with N36Q
**Q.** With B3 as the binder, how does the “IC50 in the hCRHR1 reporter assay” value [4] read?
**A.** The value was ~10 nM.

**Q.** And the “EC50 (read off the curve)” value (biotinylated CRH [2])?
**A.** The value was ~0.03 nM.

**Q.** And the “EC50 (read off the curve)” value (biotinylated CRH [5])?
**A.** Its value is ~0.03 nM.

**Q.** What about the “EC50 (read off the curve)” value (biotinylated CRH [6]) of the same binder?
**A.** Its value is ~0.05 nM.

**Q.** And the EC50 [7]?
**A.** Its EC50 is 0.076 nM.

**Q.** Does B3 bind [8]?
**A.** Result: no binding (tested: 100 nM)

**Q.** Does B3 bind [9]?
**A.** Result: no binding (tested: 100 nM)

**Q.** Does B3 bind [10]?
**A.** Result: no binding (tested: 100 nM)

**Q.** Does B3 bind [11]?
**A.** Result: no binding (tested: 100 nM)

**Q.** Does B3 bind [12]?
**A.** Result: no binding (tested: 100 nM)

**Q.** Does B3 bind [13]?
**A.** Result: binds

**Q.** What about the “% Inhibition” value (biotinylated CRH [14]) of the same binder?
**A.** Its value is 90%.

B4: PR301806 (antibody, human IgG1, kappa, V domains shown)
VH: QVQLQQPGAELVKPGTSVKMSCKASGYTFTSYWMHWVKQRPGQGLEWIGDIYPGSDSTNYNEKFKSKASLTVDTSSSTAYMQLSSLTSEDSAVYYCARSITTTTFWYFDVWGAGTTVTVSS
VL: DVLMTQTPLSLPVSLGDQASISCRSSQSFVYSNGNTYLQWYLQKPGQSPKLLIYKVSNRFSGVPDRFSGSGSGTDFTLKISRVEAEDLGVYYCFQGSHVPPTFGAGTKLELKR
**Q.** Does B4 bind (biotinylated CRH [15])?
**A.** Result: binds

B5: PR301780 (antibody, human IgG1, kappa, V domains shown)
VH: QIQLVQSGPELKKPGETVKISCKASGYTFTNFGLNWVKQAPGKGLKWMGWINTYTGEPTYTDDFKGRFAFSLETSASTAYLQINNLKKEDTATYFCARGTYRDDGAWFAYWGQGTLVTVSA
VL: B4 VL with S28I, F29I, Y31H, Q39E, Y92H, P101W, A105G, L111I
**Q.** Does B5 bind (biotinylated CRH [16])?
**A.** Result: binds

B6: PR303394 (antibody, human IgG1, kappa, V domains shown)
VH: EVQLQQSGPELVKPGVSMKISCKASGYSFTDSTMNWVKQSHGKNLEWIGLIHPDNGGTIYNQKFKGKATLTVHKSSSTAYMELLSLTSEDSAVYYCANGFAYWGQGTLVTVSA
VL: DVVMTQTPLSLPVSLGDQASISCRSSQSLLHSNGNTYLHWYLQKPGQSPELLIYKVSNRFSGVPDRFSGSGSGTDFTLKISRVEAEDLGVYFCSQSTHVPLTFGAGTKLELKR
notes: also called analog of CTRND05
**Q.** Which results are given for B6?
**A.** EC50 (read off the curve) (biotinylated CRH [5]): ~0.03 nM; EC50 (read off the curve) (biotinylated CRH [6]): ~0.03 nM; EC50 (read off the curve) [17]: ~0.02 nM; EC50 (read off the curve) [18]: ~0.02 nM; binding result [8]: no binding (tested: 100 nM); binding result [9]: no binding (tested: 100 nM); % Inhibition (biotinylated CRH [19]): 90%

B7: PR301788 (antibody, human IgG1, kappa, V domains shown)
VH: EMKLEESGGGLVQPGGSMKLSCVASGFTFSNYWMNWVRQSPEKGLEWVAEIRLKSNNYATHYAESVKGRFTISRDDSKSSVYLQMNNLRAEDTGIYYCTIGTLVYWGQGTLVTVSA
VL: DIVLTQSPASLAVSLGQRATISCRASQSVSTSTYNYMHWFQQKPGQPPKLLIKFASNLESGVPARFSGSGSGTDFTLNIHPVEEEDTATFYCQHSWEIPYTFGGGTKLEIKR
**Q.** Does B7 bind (biotinylated CRH [15])?
**A.** Result: binds

B8: PR301803 (antibody, human IgG1, kappa, V domains shown)
VH: B7 VH with M2V, S30N, V66L, I100V
VL: B7 VL with A12V, F40Y
**Q.** Does B8 bind (biotinylated CRH [16])?
**A.** Result: binds

B9: PR301790 (antibody, human IgG1, kappa, V domains shown)
VH: B7 VH
VL: B7 VL with T33S, F40Y
**Q.** Does B9 bind (biotinylated CRH [16])?
**A.** Result: binds
